Source: patent US12616740B2, “Methods of using a GIP/GLP1 co-agonist for therapy” (ELI LILLY AND COMPANY, priority 2018, dated 2026)

Assay: NCT03311724: nausea, vomiting and diarrhea, new events per interval
Type: in vivo, human
Description: This is a 12-week treatment with a 1 week screening (Visit 1) followed by a 1 week lead-in (Visit 2), then 12 weeks of treatment (Visits 3-10, including telephone visits), then followed by 4-week safety follow-up. It is a Phase 2 study designed to examine the efficacy and tolerability of subcutaneously once-weekly tirzepatide compared with placebo in patients with type 2 diabetes who have inadequate glycemic control with diet and exercise alone or with a stable dose of metformin. The study was designed per below and conducted to refine the escalation scheme.

Measured: Nausea Vomiting and Diarrhea: m, number of patients who experienced new event during interval

tirzepatide [LY]
m = 13;: LY15 mg-Group 2 (tirzepatide 2.5 mg × 4, 7.5 mg × 4, 15 mg × 4 once weekly), N = 28, Overall
m = 0;: LY12 mg Group 3 (tirzepatide 4 mg × 4, 8 mg × 4, 12 mg × 4 once weekly), N = 29, T/Wk 11 | LY15 mg-Group 1 (tirzepatide 2.5 mg × 2, 5 mg × 2, 10 mg × 4, 15 mg × 4 once weekly), N = 28, Follow-up | LY15 mg-Group 1 (tirzepatide 2.5 mg × 2, 5 mg × 2, 10 mg × 4, 15 mg × 4 once weekly), N = 28, T/Wk 7 | LY15 mg-Group 1 (tirzepatide 2.5 mg × 2, 5 mg × 2, 10 mg × 4, 15 mg × 4 once weekly), N = 28, T/Wk 9 | LY15 mg-Group 1 (tirzepatide 2.5 mg × 2, 5 mg × 2, 10 mg × 4, 15 mg × 4 once weekly), N = 28, T/Wk 12 | LY15 mg-Group 2 (tirzepatide 2.5 mg × 4, 7.5 mg × 4, 15 mg × 4 once weekly), N = 28, Follow-up | LY15 mg-Group 2 (tirzepatide 2.5 mg × 4, 7.5 mg × 4, 15 mg × 4 once weekly), N = 28, T/Wk 10 | LY15 mg-Group 2 (tirzepatide 2.5 mg × 4, 7.5 mg × 4, 15 mg × 4 once weekly), N = 28, T/Wk 12
m = 2;: LY15 mg-Group 1 (tirzepatide 2.5 mg × 2, 5 mg × 2, 10 mg × 4, 15 mg × 4 once weekly), N = 28, T/Wk 2 | LY15 mg-Group 1 (tirzepatide 2.5 mg × 2, 5 mg × 2, 10 mg × 4, 15 mg × 4 once weekly), N = 28, T/Wk 6 | LY15 mg-Group 1 (tirzepatide 2.5 mg × 2, 5 mg × 2, 10 mg × 4, 15 mg × 4 once weekly), N = 28, T/Wk 11 | LY15 mg-Group 2 (tirzepatide 2.5 mg × 4, 7.5 mg × 4, 15 mg × 4 once weekly), N = 28, T/Wk 2 | LY15 mg-Group 2 (tirzepatide 2.5 mg × 4, 7.5 mg × 4, 15 mg × 4 once weekly), N = 28, T/Wk 5 | LY15 mg-Group 2 (tirzepatide 2.5 mg × 4, 7.5 mg × 4, 15 mg × 4 once weekly), N = 28, T/Wk 7 | LY15 mg-Group 2 (tirzepatide 2.5 mg × 4, 7.5 mg × 4, 15 mg × 4 once weekly), N = 28, T/Wk 9
m = 4;: LY15 mg-Group 1 (tirzepatide 2.5 mg × 2, 5 mg × 2, 10 mg × 4, 15 mg × 4 once weekly), N = 28, T/Wk 8 | LY15 mg-Group 2 (tirzepatide 2.5 mg × 4, 7.5 mg × 4, 15 mg × 4 once weekly), N = 28, T/Wk 0 | LY15 mg-Group 2 (tirzepatide 2.5 mg × 4, 7.5 mg × 4, 15 mg × 4 once weekly), N = 28, T/Wk 1
m = 16;: LY15 mg-Group 1 (tirzepatide 2.5 mg × 2, 5 mg × 2, 10 mg × 4, 15 mg × 4 once weekly), N = 28, Overall
m = 1;: LY12 mg Group 3 (tirzepatide 4 mg × 4, 8 mg × 4, 12 mg × 4 once weekly), N = 29, T/Wk 10 | LY12 mg Group 3 (tirzepatide 4 mg × 4, 8 mg × 4, 12 mg × 4 once weekly), N = 29, T/Wk 12 | LY15 mg-Group 1 (tirzepatide 2.5 mg × 2, 5 mg × 2, 10 mg × 4, 15 mg × 4 once weekly), N = 28, T/Wk 3
m = 5;: LY15 mg-Group 1 (tirzepatide 2.5 mg × 2, 5 mg × 2, 10 mg × 4, 15 mg × 4 once weekly), N = 28, T/Wk 4 | LY15 mg-Group 2 (tirzepatide 2.5 mg × 4, 7.5 mg × 4, 15 mg × 4 once weekly), N = 28, T/Wk 8
m = 6;: LY15 mg-Group 1 (tirzepatide 2.5 mg × 2, 5 mg × 2, 10 mg × 4, 15 mg × 4 once weekly), N = 28, T/Wk 0 | LY15 mg-Group 1 (tirzepatide 2.5 mg × 2, 5 mg × 2, 10 mg × 4, 15 mg × 4 once weekly), N = 28, T/Wk 5 | LY15 mg-Group 2 (tirzepatide 2.5 mg × 4, 7.5 mg × 4, 15 mg × 4 once weekly), N = 28, T/Wk 4
m = 3;: LY15 mg-Group 1 (tirzepatide 2.5 mg × 2, 5 mg × 2, 10 mg × 4, 15 mg × 4 once weekly), N = 28, T/Wk 1 | LY15 mg-Group 1 (tirzepatide 2.5 mg × 2, 5 mg × 2, 10 mg × 4, 15 mg × 4 once weekly), N = 28, T/Wk 10 | LY15 mg-Group 2 (tirzepatide 2.5 mg × 4, 7.5 mg × 4, 15 mg × 4 once weekly), N = 28, T/Wk 3 | LY15 mg-Group 2 (tirzepatide 2.5 mg × 4, 7.5 mg × 4, 15 mg × 4 once weekly), N = 28, T/Wk 6 | LY15 mg-Group 2 (tirzepatide 2.5 mg × 4, 7.5 mg × 4, 15 mg × 4 once weekly), N = 28, T/Wk 11
